Measurements published in US20230114801A1 (SYSTIMMUNE, published 2023).

Biological target: T1, CEA (UniProt P06731 35-685, limits assumed)
T1 sequence (looked up): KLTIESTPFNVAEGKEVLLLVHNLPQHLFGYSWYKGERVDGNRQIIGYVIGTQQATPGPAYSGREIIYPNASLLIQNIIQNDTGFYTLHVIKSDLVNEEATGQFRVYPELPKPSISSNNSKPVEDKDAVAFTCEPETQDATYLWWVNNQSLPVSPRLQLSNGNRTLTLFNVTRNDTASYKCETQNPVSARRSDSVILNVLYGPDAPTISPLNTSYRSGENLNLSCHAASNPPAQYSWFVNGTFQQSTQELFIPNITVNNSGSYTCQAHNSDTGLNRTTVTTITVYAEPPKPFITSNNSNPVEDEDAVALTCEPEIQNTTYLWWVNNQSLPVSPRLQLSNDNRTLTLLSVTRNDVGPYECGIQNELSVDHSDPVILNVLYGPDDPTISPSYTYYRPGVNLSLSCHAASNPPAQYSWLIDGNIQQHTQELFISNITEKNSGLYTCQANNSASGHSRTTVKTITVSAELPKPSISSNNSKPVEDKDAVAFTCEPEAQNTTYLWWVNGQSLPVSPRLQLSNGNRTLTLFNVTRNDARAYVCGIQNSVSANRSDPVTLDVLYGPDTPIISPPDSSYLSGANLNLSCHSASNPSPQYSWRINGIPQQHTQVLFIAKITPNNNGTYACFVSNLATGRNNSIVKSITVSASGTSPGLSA
Assay: BLI (Octet), unstapled control mAb or Fc-scFv

Kd: < 1 pM
B1: SI-20C14 (antibody, human IgG1, kappa, V domains shown)
VH: EVQLVESGGGLVQPGGSLRLSCAASGFSFSGTQYVCWVRQAPGKGLEWIGCIYVDVANTYYATSVKGRFTISRDNSKNTLYLQMNSLRAEDTAVYYCASHDTVCAGCGLDLWGQGTLVTVSS
VL: DIQMTQSPSTLSASVGDRVTITCQASENIYSNLAWYQQKPGKAPKLLIYDASTLASGVPSRFSGSGSGTEFTLTISSLQPDDFATYYCQSTYYNNIIYGAAFGGGTKVEIKR
notes: monoclonal antibody control for the αCEA domain; also called αCEA mAb 656E11; SI-20C14 (anti-CEA 656E11)
